In patent US20050032245A1 (Harvard, published 2005):
Oregon Green 514 = pentafluorofluorescein derivative

T1: MBP-UL42Δ340 (truncated UL42 processivity subunit of HSV DNA polymerase as maltose binding protein fusion) (herpes simplex virus, UniProt P10226 1-339, N-terminal MBP fusion, not carried in the letters)
T1 construct: Expressed in E. coli BL21(de3)pLysS and purified over amylose; also called wt UL42; HSV MBP-UL42
T1 sequence: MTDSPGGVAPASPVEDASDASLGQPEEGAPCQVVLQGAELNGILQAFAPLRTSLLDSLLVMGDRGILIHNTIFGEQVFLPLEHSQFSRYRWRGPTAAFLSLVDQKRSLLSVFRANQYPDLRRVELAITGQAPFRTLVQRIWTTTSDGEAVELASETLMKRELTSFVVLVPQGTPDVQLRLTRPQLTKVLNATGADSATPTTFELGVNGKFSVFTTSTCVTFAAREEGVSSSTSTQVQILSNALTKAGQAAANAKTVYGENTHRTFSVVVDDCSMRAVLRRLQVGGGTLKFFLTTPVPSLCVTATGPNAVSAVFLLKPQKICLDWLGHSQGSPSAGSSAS

B1: peptide A (36-mer derived from the C-terminus of HSV Pol) (peptide)
peptide: DDVAARLRTAGFGAVGAGATAEETRRMLHRAFDTLA
notes: also called 36-mer peptide A; unlabeled peptide A
B2: Oregon Green 514-labeled peptide E (18 C-terminal amino acids of HSV Pol) (peptide)
peptide: {Oregon Green 514}-ATAEETRRMLHRAFDTLA-NH2
notes: also called Oregon Green-peptide E; labeled tracer

Experiments:
[1] = biological target: T1, MBP-UL42Δ340 (truncated UL42 …); assay: fluorescence polarization competition; peptide A displaces labeled peptide E from 7 µM UL42, Hill equation
[2] = biological target: T1, MBP-UL42Δ340 (truncated UL42 …); assay: fluorescence polarization; MBP-UL42 titrated (1 to 50 µM) into 1 nM labeled peptide, Hofstee transformation

| Binder | IC50 [1] | Kd [2] |
| --- | --- | --- |
| B1 | ~6 µM | – |
| B2 | – | 5 µM |
